Here are results for one substance from patent US6258556.

The target in the experiment is human µ opiate receptor (human).

“(D-ala^2, N-methyl-phe^4, glyol^5) enkephalin (peptide)” showed an adenyl cyclase activity (cAMP radioimmunoassay) in forskolin-stimulated COS cells above 30%.
